Assays:
[1] = confocal GFP imaging with ER-Tracker; conditions: glycan lost; control: wild type Gpr176-GFP
[2] = immunoblot after MG132 or bafilomycin A1, 6 h; conditions: glycan lost; control: wild type Gpr176-GFP
[3] = immunoblot densitometry, Dox-induced Flp-In TREx293; conditions: glycan lost; for expression_or_secretion, percent_of_wt: control: wild type; for expression_or_secretion: control: wild type hGPR176
[4] = immunoblot of PNGase F-treated live cells; conditions: glycan lost; control: cells without PNGase F

Row | Protein | expression_or_secretion [3] | also measured
1 | Gpr176: N-ter mut (protein) parent chain: MGHNSSWVSPNTSHPRNTSGAEAGANLSAFGELSEAQLYRQFTTTVQVVIFIGSLLGNFMVLWSTCRTTVFKSVTNRFIKNLACSGICASVVCVPFDIILSSSPHCCWWIYTMLFCKVLKFLHKVFCSVTVLSFPAIALDRYYSVLYPLERKISDAKSRELVMYIWAHAVVASVPVFAVTNVADIYAMSTCTEVWSNSLGHLVYVLIYNVTTVIVPVAVVFLFLILIRRALSASQKKKVIIAALRTPQNTISIPYASQREAELHATLLSMVTVFILCSVPYATLVVYQTVLNVPNTSVFLLLTAIWLPKVSLLANPVLFLTVNKSVRKCLVGTLVQLHHRYSRRNVVSTGSGVAEPSLEPSMRSGSQLLEMFHIGQQQIFKPSEDEEESEAKYLGSADFQAKEVLTSCPEGEQEPPQLAPSVPPPGTVDSEPRVSPVAPMESGIFPDKYSLQFGFGPFELPPQWLSETRNSKKRLLPPLGNTPEELIQTKVPRVNRVERKMSRNNKVSIFPKVDS | – | localisation_or_trafficking [1]: changes; degradation_or_half_life [2]: decreases; expression_or_secretion, percent_of_wt [3]: decreases
2 | Gpr176: PNGase F (protein) parent chain: MGHNSSWVSPNTSHPRNTSGAEAGANLSAFGELSEAQLYRQFTTTVQVVIFIGSLLGNFMVLWSTCRTTVFKSVTNRFIKNLACSGICASVVCVPFDIILSSSPHCCWWIYTMLFCKVLKFLHKVFCSVTVLSFPAIALDRYYSVLYPLERKISDAKSRELVMYIWAHAVVASVPVFAVTNVADIYAMSTCTEVWSNSLGHLVYVLIYNVTTVIVPVAVVFLFLILIRRALSASQKKKVIIAALRTPQNTISIPYASQREAELHATLLSMVTVFILCSVPYATLVVYQTVLNVPNTSVFLLLTAIWLPKVSLLANPVLFLTVNKSVRKCLVGTLVQLHHRYSRRNVVSTGSGVAEPSLEPSMRSGSQLLEMFHIGQQQIFKPSEDEEESEAKYLGSADFQAKEVLTSCPEGEQEPPQLAPSVPPPGTVDSEPRVSPVAPMESGIFPDKYSLQFGFGPFELPPQWLSETRNSKKRLLPPLGNTPEELIQTKVPRVNRVERKMSRNNKVSIFPKVDS | – | expression_or_secretion [4]: no change
3 | Gpr176: N-ter/ECL3 (protein) parent chain: MGHNSSWVSPNTSHPRNTSGAEAGANLSAFGELSEAQLYRQFTTTVQVVIFIGSLLGNFMVLWSTCRTTVFKSVTNRFIKNLACSGICASVVCVPFDIILSSSPHCCWWIYTMLFCKVLKFLHKVFCSVTVLSFPAIALDRYYSVLYPLERKISDAKSRELVMYIWAHAVVASVPVFAVTNVADIYAMSTCTEVWSNSLGHLVYVLIYNVTTVIVPVAVVFLFLILIRRALSASQKKKVIIAALRTPQNTISIPYASQREAELHATLLSMVTVFILCSVPYATLVVYQTVLNVPNTSVFLLLTAIWLPKVSLLANPVLFLTVNKSVRKCLVGTLVQLHHRYSRRNVVSTGSGVAEPSLEPSMRSGSQLLEMFHIGQQQIFKPSEDEEESEAKYLGSADFQAKEVLTSCPEGEQEPPQLAPSVPPPGTVDSEPRVSPVAPMESGIFPDKYSLQFGFGPFELPPQWLSETRNSKKRLLPPLGNTPEELIQTKVPRVNRVERKMSRNNKVSIFPKVDS | – | expression_or_secretion, percent_of_wt [3]: decreases
4 | hGPR176: N-ter mut (N4Q;N11Q;N17Q;N27Q) (protein) parent chain: MGHNGSWISPNASEPHNASGAEAAGVNRSALGEFGEAQLYRQFTTTVQVVIFIGSLLGNFMVLWSTCRTTVFKSVTNRFIKNLACSGICASLVCVPFDIILSTSPHCCWWIYTMLFCKVVKFLHKVFCSVTILSFPAIALDRYYSVLYPLERKISDAKSRELVMYIWAHAVVASVPVFAVTNVADIYATSTCTEVWSNSLGHLVYVLVYNITTVIVPVVVVFLFLILIRRALSASQKKKVIIAALRTPQNTISIPYASQREAELHATLLSMVMVFILCSVPYATLVVYQTVLNVPDTSVFLLLTAVWLPKVSLLANPVLFLTVNKSVRKCLIGTLVQLHHRYSRRNVVSTGSGMAEASLEPSIRSGSQLLEMFHIGQQQIFKPTEDEEESEAKYIGSADFQAKEIFSTCLEGEQGPQFAPSAPPLSTVDSVSQVAPAAPVEPETFPDKYSLQFGFGPFELPPQWLSETRNSKKRLLPPLGNTPEELIQTKVPKVGRVERKMSRNNKVSIFPKVDS | decreases | –
5 | hGPR176: N17T (protein) parent chain: MGHNGSWISPNASEPHNASGAEAAGVNRSALGEFGEAQLYRQFTTTVQVVIFIGSLLGNFMVLWSTCRTTVFKSVTNRFIKNLACSGICASLVCVPFDIILSTSPHCCWWIYTMLFCKVVKFLHKVFCSVTILSFPAIALDRYYSVLYPLERKISDAKSRELVMYIWAHAVVASVPVFAVTNVADIYATSTCTEVWSNSLGHLVYVLVYNITTVIVPVVVVFLFLILIRRALSASQKKKVIIAALRTPQNTISIPYASQREAELHATLLSMVMVFILCSVPYATLVVYQTVLNVPDTSVFLLLTAVWLPKVSLLANPVLFLTVNKSVRKCLIGTLVQLHHRYSRRNVVSTGSGMAEASLEPSIRSGSQLLEMFHIGQQQIFKPTEDEEESEAKYIGSADFQAKEIFSTCLEGEQGPQFAPSAPPLSTVDSVSQVAPAAPVEPETFPDKYSLQFGFGPFELPPQWLSETRNSKKRLLPPLGNTPEELIQTKVPKVGRVERKMSRNNKVSIFPKVDS | no change | –
6 | hGPR176: S13G (protein) parent chain: MGHNGSWISPNASEPHNASGAEAAGVNRSALGEFGEAQLYRQFTTTVQVVIFIGSLLGNFMVLWSTCRTTVFKSVTNRFIKNLACSGICASLVCVPFDIILSTSPHCCWWIYTMLFCKVVKFLHKVFCSVTILSFPAIALDRYYSVLYPLERKISDAKSRELVMYIWAHAVVASVPVFAVTNVADIYATSTCTEVWSNSLGHLVYVLVYNITTVIVPVVVVFLFLILIRRALSASQKKKVIIAALRTPQNTISIPYASQREAELHATLLSMVMVFILCSVPYATLVVYQTVLNVPDTSVFLLLTAVWLPKVSLLANPVLFLTVNKSVRKCLIGTLVQLHHRYSRRNVVSTGSGMAEASLEPSIRSGSQLLEMFHIGQQQIFKPTEDEEESEAKYIGSADFQAKEIFSTCLEGEQGPQFAPSAPPLSTVDSVSQVAPAAPVEPETFPDKYSLQFGFGPFELPPQWLSETRNSKKRLLPPLGNTPEELIQTKVPKVGRVERKMSRNNKVSIFPKVDS | decreases | –
7 | hGPR176: N4D (protein) parent chain: MGHNGSWISPNASEPHNASGAEAAGVNRSALGEFGEAQLYRQFTTTVQVVIFIGSLLGNFMVLWSTCRTTVFKSVTNRFIKNLACSGICASLVCVPFDIILSTSPHCCWWIYTMLFCKVVKFLHKVFCSVTILSFPAIALDRYYSVLYPLERKISDAKSRELVMYIWAHAVVASVPVFAVTNVADIYATSTCTEVWSNSLGHLVYVLVYNITTVIVPVVVVFLFLILIRRALSASQKKKVIIAALRTPQNTISIPYASQREAELHATLLSMVMVFILCSVPYATLVVYQTVLNVPDTSVFLLLTAVWLPKVSLLANPVLFLTVNKSVRKCLIGTLVQLHHRYSRRNVVSTGSGMAEASLEPSIRSGSQLLEMFHIGQQQIFKPTEDEEESEAKYIGSADFQAKEIFSTCLEGEQGPQFAPSAPPLSTVDSVSQVAPAAPVEPETFPDKYSLQFGFGPFELPPQWLSETRNSKKRLLPPLGNTPEELIQTKVPKVGRVERKMSRNNKVSIFPKVDS | no change | –
8 | hGPR176: N17K (protein) parent chain: MGHNGSWISPNASEPHNASGAEAAGVNRSALGEFGEAQLYRQFTTTVQVVIFIGSLLGNFMVLWSTCRTTVFKSVTNRFIKNLACSGICASLVCVPFDIILSTSPHCCWWIYTMLFCKVVKFLHKVFCSVTILSFPAIALDRYYSVLYPLERKISDAKSRELVMYIWAHAVVASVPVFAVTNVADIYATSTCTEVWSNSLGHLVYVLVYNITTVIVPVVVVFLFLILIRRALSASQKKKVIIAALRTPQNTISIPYASQREAELHATLLSMVMVFILCSVPYATLVVYQTVLNVPDTSVFLLLTAVWLPKVSLLANPVLFLTVNKSVRKCLIGTLVQLHHRYSRRNVVSTGSGMAEASLEPSIRSGSQLLEMFHIGQQQIFKPTEDEEESEAKYIGSADFQAKEIFSTCLEGEQGPQFAPSAPPLSTVDSVSQVAPAAPVEPETFPDKYSLQFGFGPFELPPQWLSETRNSKKRLLPPLGNTPEELIQTKVPKVGRVERKMSRNNKVSIFPKVDS | no change | –
9 | hGPR176: N4S (protein) parent chain: MGHNGSWISPNASEPHNASGAEAAGVNRSALGEFGEAQLYRQFTTTVQVVIFIGSLLGNFMVLWSTCRTTVFKSVTNRFIKNLACSGICASLVCVPFDIILSTSPHCCWWIYTMLFCKVVKFLHKVFCSVTILSFPAIALDRYYSVLYPLERKISDAKSRELVMYIWAHAVVASVPVFAVTNVADIYATSTCTEVWSNSLGHLVYVLVYNITTVIVPVVVVFLFLILIRRALSASQKKKVIIAALRTPQNTISIPYASQREAELHATLLSMVMVFILCSVPYATLVVYQTVLNVPDTSVFLLLTAVWLPKVSLLANPVLFLTVNKSVRKCLIGTLVQLHHRYSRRNVVSTGSGMAEASLEPSIRSGSQLLEMFHIGQQQIFKPTEDEEESEAKYIGSADFQAKEIFSTCLEGEQGPQFAPSAPPLSTVDSVSQVAPAAPVEPETFPDKYSLQFGFGPFELPPQWLSETRNSKKRLLPPLGNTPEELIQTKVPKVGRVERKMSRNNKVSIFPKVDS | decreases | –

From PMC7064540
